{"source": "the Immune Epitope Database (IEDB)", "experiment_in_all_cases": "IEDB peptide-MHC binding, purified MHC/competitive/radioactivity; filed as Kd, often an IC50 or EC50 that approximates it; ≥ and ≤ were set here for values at or beyond the usual limits of such assays", "key": {"HLA-A*02:02": {"biological_target": "HLA-A*02:02"}, "HLA-A*02:03": {"biological_target": "HLA-A*02:03"}, "HLA-A*02:06": {"biological_target": "HLA-A*02:06"}, "HLA-A*03:01": {"biological_target": "HLA-A*03:01"}, "HLA-A*11:01": {"biological_target": "HLA-A*11:01"}, "HLA-A*31:01": {"biological_target": "HLA-A*31:01"}, "HLA-A*33:01": {"biological_target": "HLA-A*33:01"}, "HLA-A*68:01": {"biological_target": "HLA-A*68:01"}, "[1]": {"conditions": "source organism: Mammarenavirus juninense"}, "[2]": {"conditions": "source organism: Dengue virus 2 16681-PDK53"}, "[3]": {"conditions": "source organism: Vaccinia virus WR"}, "[4]": {"conditions": "source organism: Mammarenavirus guanaritoense"}, "[5]": {"conditions": "source organism: Dengue virus 2 Jamaica/1409/1983"}, "[6]": {"conditions": "source organism: SARS coronavirus Tor2"}, "[7]": {"conditions": "source organism: Lassa virus Josiah"}, "[8]": {"conditions": "source organism: Mammarenavirus whitewaterense"}}, "data": [{"sequence": "KSGLFQFFV", "values": [{"measurement": "Kd", "setting": "HLA-A*02:02; [1]", "result": 23.1, "unit": "nM"}, {"measurement": "Kd", "setting": "HLA-A*02:03; [1]", "result": 1550, "unit": "nM"}, {"measurement": "Kd", "setting": "HLA-A*02:06; [1]", "result": 8.06, "unit": "nM"}]}, {"sequence": "KVSCTILAV", "values": [{"measurement": "Kd", "setting": "HLA-A*02:03; [2]", "result": 57.7, "unit": "nM"}, {"measurement": "Kd", "setting": "HLA-A*02:06; [2]", "result": 18.2, "unit": "nM"}]}, {"sequence": "KVYNGIFVDT", "values": [{"measurement": "Kd", "setting": "HLA-A*02:02; [3]", "result": 111, "unit": "nM"}, {"measurement": "Kd", "setting": "HLA-A*02:03; [3]", "result": 1440, "unit": "nM"}, {"measurement": "Kd", "setting": "HLA-A*02:06; [3]", "result": 16400, "unit": "nM"}]}, {"sequence": "LALTDVEKRI", "values": [{"measurement": "Kd", "setting": "HLA-A*02:02; [3]", "result": 199, "unit": "nM"}, {"measurement": "Kd", "setting": "HLA-A*02:03; [3]", "result": 403, "unit": "nM"}, {"measurement": "Kd", "setting": "HLA-A*02:06; [3]", "result": 2410, "unit": "nM"}]}, {"sequence": "LAYYNSCML", "values": [{"measurement": "Kd", "setting": "HLA-A*02:02; [3]", "result": 12800, "unit": "nM"}, {"measurement": "Kd", "setting": "HLA-A*02:03; [3]", "result": 15500, "unit": "nM"}, {"measurement": "Kd", "setting": "HLA-A*02:06; [3]", "result": "≥ 21500", "unit": "nM"}]}, {"sequence": "LCFWSAIFFT", "values": [{"measurement": "Kd", "setting": "HLA-A*02:02; [4]", "result": 2600, "unit": "nM"}, {"measurement": "Kd", "setting": "HLA-A*02:03; [4]", "result": "≥ 30300", "unit": "nM"}, {"measurement": "Kd", "setting": "HLA-A*02:06; [4]", "result": "≥ 34500", "unit": "nM"}]}, {"sequence": "LLATVTGGI", "values": [{"measurement": "Kd", "setting": "HLA-A*02:03; [5]", "result": 3.59, "unit": "nM"}]}, {"sequence": "LLFLVLIML", "values": [{"measurement": "Kd", "setting": "HLA-A*02:02; [6]", "result": 154, "unit": "nM"}, {"measurement": "Kd", "setting": "HLA-A*02:03; [6]", "result": 1370, "unit": "nM"}, {"measurement": "Kd", "setting": "HLA-A*02:06; [6]", "result": 573, "unit": "nM"}]}, {"sequence": "LMMATIGIA", "values": [{"measurement": "Kd", "setting": "HLA-A*02:03; [5]", "result": 0.49, "unit": "nM"}]}, {"sequence": "MLTNAISSRV", "values": [{"measurement": "Kd", "setting": "HLA-A*02:02; [3]", "result": 53, "unit": "nM"}, {"measurement": "Kd", "setting": "HLA-A*02:03; [3]", "result": 0.105, "unit": "nM"}, {"measurement": "Kd", "setting": "HLA-A*02:06; [3]", "result": 224, "unit": "nM"}]}, {"sequence": "MLWCKDGHV", "values": [{"measurement": "Kd", "setting": "HLA-A*02:02; [6]", "result": 10.3, "unit": "nM"}, {"measurement": "Kd", "setting": "HLA-A*02:03; [6]", "result": 11, "unit": "nM"}, {"measurement": "Kd", "setting": "HLA-A*02:06; [6]", "result": 362, "unit": "nM"}]}, {"sequence": "MMQNDYGGM", "values": [{"measurement": "Kd", "setting": "HLA-A*02:02; [3]", "result": 1080, "unit": "nM"}, {"measurement": "Kd", "setting": "HLA-A*02:03; [3]", "result": 2740, "unit": "nM"}, {"measurement": "Kd", "setting": "HLA-A*02:06; [3]", "result": 1660, "unit": "nM"}]}, {"sequence": "MSIQLINKAV", "values": [{"measurement": "Kd", "setting": "HLA-A*02:02; [7]", "result": 11300, "unit": "nM"}, {"measurement": "Kd", "setting": "HLA-A*02:03; [7]", "result": 1790, "unit": "nM"}, {"measurement": "Kd", "setting": "HLA-A*02:06; [7]", "result": 619, "unit": "nM"}]}, {"sequence": "NQLTYVVIAI", "values": [{"measurement": "Kd", "setting": "HLA-A*02:06; [5]", "result": 23.6, "unit": "nM"}]}, {"sequence": "PLPNFSSLNL", "values": [{"measurement": "Kd", "setting": "HLA-A*02:06; source organism: Homo sapiens", "result": "≥ 56600", "unit": "nM"}]}, {"sequence": "PLPVSRLVSL", "values": [{"measurement": "Kd", "setting": "HLA-A*02:03; source organism: Homo sapiens", "result": 16700, "unit": "nM"}]}, {"sequence": "QISRVNDLNR", "values": [{"measurement": "Kd", "setting": "HLA-A*03:01; [3]", "result": 1940, "unit": "nM"}, {"measurement": "Kd", "setting": "HLA-A*11:01; [3]", "result": 335, "unit": "nM"}, {"measurement": "Kd", "setting": "HLA-A*31:01; [3]", "result": 122, "unit": "nM"}, {"measurement": "Kd", "setting": "HLA-A*33:01; [3]", "result": 913, "unit": "nM"}, {"measurement": "Kd", "setting": "HLA-A*68:01; [3]", "result": 88, "unit": "nM"}]}, {"sequence": "RFVKFNDYR", "values": [{"measurement": "Kd", "setting": "HLA-A*03:01; [3]", "result": 19800, "unit": "nM"}, {"measurement": "Kd", "setting": "HLA-A*11:01; [3]", "result": 14800, "unit": "nM"}, {"measurement": "Kd", "setting": "HLA-A*31:01; [3]", "result": "≤ 1", "unit": "nM"}, {"measurement": "Kd", "setting": "HLA-A*33:01; [3]", "result": 237, "unit": "nM"}, {"measurement": "Kd", "setting": "HLA-A*68:01; [3]", "result": 38.2, "unit": "nM"}]}, {"sequence": "RLGLVLDDY", "values": [{"measurement": "Kd", "setting": "HLA-A*03:01; [3]", "result": 11.1, "unit": "nM"}, {"measurement": "Kd", "setting": "HLA-A*11:01; [3]", "result": 3560, "unit": "nM"}, {"measurement": "Kd", "setting": "HLA-A*31:01; [3]", "result": "≥ 77900", "unit": "nM"}, {"measurement": "Kd", "setting": "HLA-A*33:01; [3]", "result": "≥ 77700", "unit": "nM"}, {"measurement": "Kd", "setting": "HLA-A*68:01; [3]", "result": "≥ 44500", "unit": "nM"}]}, {"sequence": "RVVVQIDPEY", "values": [{"measurement": "Kd", "setting": "HLA-A*03:01; [3]", "result": 14200, "unit": "nM"}, {"measurement": "Kd", "setting": "HLA-A*11:01; [3]", "result": "≥ 23400", "unit": "nM"}, {"measurement": "Kd", "setting": "HLA-A*31:01; [3]", "result": "≥ 70000", "unit": "nM"}, {"measurement": "Kd", "setting": "HLA-A*33:01; [3]", "result": "≥ 70000", "unit": "nM"}, {"measurement": "Kd", "setting": "HLA-A*68:01; [3]", "result": 1190, "unit": "nM"}]}, {"sequence": "SAEDNYLAK", "values": [{"measurement": "Kd", "setting": "HLA-A*03:01; [3]", "result": "≥ 26300", "unit": "nM"}, {"measurement": "Kd", "setting": "HLA-A*11:01; [3]", "result": 56.1, "unit": "nM"}, {"measurement": "Kd", "setting": "HLA-A*31:01; [3]", "result": "≥ 53500", "unit": "nM"}, {"measurement": "Kd", "setting": "HLA-A*33:01; [3]", "result": "≥ 77700", "unit": "nM"}, {"measurement": "Kd", "setting": "HLA-A*68:01; [3]", "result": 11400, "unit": "nM"}]}, {"sequence": "SAGFSLWIYK", "values": [{"measurement": "Kd", "setting": "HLA-A*03:01; [6]", "result": 75.3, "unit": "nM"}, {"measurement": "Kd", "setting": "HLA-A*11:01; [6]", "result": 0.0935, "unit": "nM"}, {"measurement": "Kd", "setting": "HLA-A*31:01; [6]", "result": 52.1, "unit": "nM"}, {"measurement": "Kd", "setting": "HLA-A*33:01; [6]", "result": 3430, "unit": "nM"}, {"measurement": "Kd", "setting": "HLA-A*68:01; [6]", "result": 31.1, "unit": "nM"}]}, {"sequence": "SCSYKIGHH", "values": [{"measurement": "Kd", "setting": "HLA-A*03:01; [8]", "result": "≥ 78000", "unit": "nM"}, {"measurement": "Kd", "setting": "HLA-A*11:01; [8]", "result": "≥ 64800", "unit": "nM"}, {"measurement": "Kd", "setting": "HLA-A*31:01; [8]", "result": "≥ 45800", "unit": "nM"}, {"measurement": "Kd", "setting": "HLA-A*33:01; [8]", "result": "≥ 77700", "unit": "nM"}, {"measurement": "Kd", "setting": "HLA-A*68:01; [8]", "result": "≥ 77600", "unit": "nM"}]}, {"sequence": "SFKSINKVY", "values": [{"measurement": "Kd", "setting": "HLA-A*03:01; [3]", "result": 1830, "unit": "nM"}, {"measurement": "Kd", "setting": "HLA-A*11:01; [3]", "result": 2770, "unit": "nM"}, {"measurement": "Kd", "setting": "HLA-A*31:01; [3]", "result": 2130, "unit": "nM"}, {"measurement": "Kd", "setting": "HLA-A*33:01; [3]", "result": "≥ 77700", "unit": "nM"}, {"measurement": "Kd", "setting": "HLA-A*68:01; [3]", "result": 6900, "unit": "nM"}]}]}
